# Data from patent US11673947B2, “Target tissue-specific antigen-binding molecule” (Chugai Seiyaku Kabushiki Kaisha, priority 2012, dated 2023).
# Assays:
# [1] = Phage ELISA, binding to 2′-adenosine-PEG-biotin, 5′-adenosine-PEG-biotin and ATP-PEG-biotin
# Method: From single colonies of E. coli obtained by panning as described in the Example above, culture supernatants containing phages were collected according to a conventional method (Method Mol. Biol. (2002) 178, 133-145). The collected culture supernatants were treated by ultrafiltration using NucleoFast 96 (MACHERY-NAGEL). 100 μl of the culture supernatants were added to each well of NucleoFast 96 and centrifuged at 4500 g for 45 minutes to remove flow through. After addition of 100 μl of H2O, the NucleoFast 96 was washed by centrifugation at 4500 g for 30 minutes. After addition of 100 μl of TBS, the NucleoFast 96 was allowed to stand for five minutes at room temperature. Then, phage suspensions were collected from the supernatants.
# Purified phages, to which TBS was added, were subjected to ELISA by the following procedure. […] Then, the developed color was assessed by measuring absorbance at 450 nm.
# Next, for the purpose of confirming to which antigen of 2′-adenosine-PEG-biotin, 5′-adenosine-PEG-biotin, and ATP-PEG-biotin these clones have binding ability, the purified phages diluted with TBS were subjected to ELISA by the following procedure. […] Then, the developed color was assessed by measuring absorbance at 450 nm.
# [2] = Competitive phage ELISA, inhibition of binding to biotin-labeled antigens by ATP; settings: ATP from an equal amount up to 10000 times that of the antigen
# Method: ATNLSA1-4_D12 and PF1 were each diluted with TBS and subjected to ELISA by the following procedure.
# A StreptaWell 96 microtiter plate (Roche) was coated at room temperature for one hour with 100 μl of TBS containing biotin-labeled antigens (a mixture of 5′-adenosine-PEG-biotin and ATP-PEG-biotin). After the antigens were removed by washing each well of the plate with TBST, the wells were blocked with 250 μl of 2% skim milk/TBS for one hour or more. 2% skim milk/TBS was removed, and then the prepared, purified phages were added to each well. The plate was allowed to stand at room temperature for one hour to allow binding of the antibody-displaying phages to the antigens in each well. […] For the competition of the immobilized antigen with ATP, the plate was allowed to stand at room temperature for one hour. Then, after TBST wash, an HRP-conjugated anti-M13 antibody (Amersham Pharmacia Biotech) diluted with TBS was added to each well. The plate was incubated for one hour. Following TBST wash, the TMB single solution (ZYMED) was added to each well. The chromogenic reaction in the solution of each well was terminated by adding sulfuric acid. Then, the developed color was assessed by measuring absorbance at 450 nm.
# [3] = Biacore T200, binding of D12 and ATNLSA1-4_D12 variants to ATP; settings: 50 mM Tris-HCl, 500 mM NaCl, 0.01% Tween20, 15° C.
# Text: Biacore T200 (GE Healthcare) was used to analyze the interaction of D12, in which the constant region of IgG is linked to the variable region of clone ATNLSA1-4_D12 with ATP- and adenosine-binding activity, in antigen-antibody reaction. Sensor chip CM5 or CM4 (GE Healthcare) was immobilized with an appropriate amount of protein A (Life technologies) by amine coupling. The antibody of interest was captured by the chip to allow interaction with ATP (Wako), adenosine (Wako), or ADP (adenosine diphosphate) (Wako) as an antigen. The running buffer used was 50 mM Tris-HCl (Takara, T903), 500 mM NaCl, 0.01% (w/v) Tween20. […] The interaction with the antigen was assessed at 15° C. […]
# (§1) The dissociation constant KD (M) was calculated based on the association rate constant ka (1/Ms) and dissociation rate constant kd (1/s), both of which are kinetic parameters calculated from the sensorgram obtained by the measurement. Alternatively, the dissociation constant KD (M) was calculated using steady state analysis. Each parameter was calculated using the Biacore T200 Evaluation Software (GE Healthcare).
# Each variant expressed and purified by the method described in Example 7-1 was assayed for its ATP and adenosine binding by the same method as described in Example 7-6 using Biacore. Based on the assay result, the affinity of each variant for ATP was calculated as a KD value. […]
# [4] = Biacore T200, binding of D12 to ADP; settings: 50 mM Tris-HCl, 500 mM NaCl, 0.01% Tween20, 15° C.
# Text: (§2) Biacore T200 (GE Healthcare) was used to analyze the interaction of D12, in which the constant region of IgG is linked to the variable region of clone ATNLSA1-4_D12 with ATP- and adenosine-binding activity, in antigen-antibody reaction. Sensor chip CM5 or CM4 (GE Healthcare) was immobilized with an appropriate amount of protein A (Life technologies) by amine coupling. The antibody of interest was captured by the chip to allow interaction with ATP (Wako), adenosine (Wako), or ADP (adenosine diphosphate) (Wako) as an antigen. The running buffer used was 50 mM Tris-HCl (Takara, T903), 500 mM NaCl, 0.01% (w/v) Tween20. The antigen was allowed to interact for 30 seconds at a flow rate of 30 μl/min, and was dissociated for 30 seconds. The interaction with the antigen was assessed at 15° C. The antigen was diluted using the same running buffer.
# as §1
# [5] = Biacore T200, binding of D12 and variants to adenosine (steady state, Formula 2); settings: 15° C., specific response with/without 20 μmol/l ADP
# Text: as §2, §1
# In addition, the binding response was separately assessed in the presence of 20 μmol/l ADP. […]
# Tm measurement by DSC = assay type: physicochemical
# Method: Then, for the purpose of improving antibody stability, the framework sequence of ATNLSA1-4_D12 was restored to the germ line sequence VH3-21 by introducing into the framework sequence of ATNLSA1-4_D12, alterations Gln01Glu, Gln05Val, Asp10Gly, Asn30Ser, Leu48Val, and Asn58Tyr (numerals represent Kabat numbers). ATNLSA1-4_D12 variants expressed and purified by the method described in Example 7-1 were measured for their Tm by DSC. DSC measurement was carried out by a method known to those skilled in the art.
# [6] = test system: CHO/hIL6R (CHO cells expressing human IL-6 receptor); experiment: ADCC (chrome release) with NK92-CD16(V) as effector cells against CHO/hIL6R cells; assay type: cell-based; settings: in the presence of ATP, various antibody concentrations; variants with increased effector activity
# Method: The obtained antibodies 6RAD2C1-4_030 and 6RAD2C1-4_011 were assessed by the method described below to test whether ADCC activity against hIL-6R-expressing cells is mediated via hIL-6R binding of the antibodies in the presence of adenosine triphosphate (ATP). […] At various antibody concentrations in the presence or absence of ATP, 6RAD2C1-4_030, 6RAD2C1-4_011, and MRA were assessed for the ADCC activity to hIL-6R-expressing cells according to the method described in Reference Example 3.
# Antibodies that bind to antigens in an ATP-dependent manner were assessed for their ADCC activity against antigen-expressing cells at various antibody concentrations according to the method described below. […]
# ADCC activity was assessed based on the specific chrome release rate determined by chrome release assay. […] 100 μl of culture supernatant from each well of the plate was measured for radioactivity using a gamma counter. The specific chrome release rate was determined based on the equation described in Reference Example 1.
Kd [3],Kd [4],Kd [5],Molecule,binding to biotin-labeled antigens (phage ELISA) [1],binding to antigen in the presence of ATP [2],Tm (Tm measurement by DSC),ADCC activity against hIL-6R-expressing cells [6]
8.5 µM,250 nM,1.1 mM,"ATNLSA1-4_D12: ATP/adenosine-binding antibody from human antibody library; variable regions SEQ ID NOs: 46 and 47 (antibody, listed as Homo sapiens, V domains shown) VH: QVQLQESGGDLVKPGGSLRLSCAASGFTFNTYTMNWVRQAPGKGLEWLSSISSRSNYINYADSVKGRFTISRDNAKNSLYLQMNSLRAEDTAVYYCARFGRKGDLNWVFDYWGQGTLVTVSS VL: QSALTQPPSASGSPGQSVTISCTGTSSDVGGYNYVSWYQQHPGKAPKLMIYEVSKRPSGVPDRFSGSKSGNTASLTVSGLQAEDEADYFCSSYAGSNNVVFGGGTKLTVL",had the ability to bind to both 5′-Adenosine-PEG-biotin and ATP-PEG-biotin,inhibited in an ATP concentration-dependent manner,74.37 °C,
,,,"6RAD2C1-4_011: antibody that binds to hIL-6R in the presence of ATP; variable regions SEQ ID NOs: 82 and 83 (antibody, listed as Homo sapiens, V domains shown) VH: EVQLVESGGDLVKPGGGLRLSCAASGFTFSGHTMNWVRQAPGKGLEWVSSISSRSSYIYYADSVKGRFTISRDNAKNSLYLQMNSLRAEDTAVYYCARYGALGQMNWVFDYWGQGTLVTVSS VL: QSALTQPPSASGSPGQTVTISCTGTSTDVGDYNYVSWYQQHPGKAPKLMIYSVSKRPSGVPDRFSGSKSGNTASLTVSGLQAEDEADYFCSSRSSSMNVLFGGGTKLTVL",,,,antibody concentration-dependent ADCC activity
,,,"6RAD2C1-4_030: antibody that binds to hIL-6R in the presence of ATP; variable regions SEQ ID NOs: 119 and 120 (antibody, listed as Homo sapiens, V domains shown) VH: EVQLVESGGDLVKPGGGLRLSCAASGFTFSSYTMNWVRQAPGKGLEWVSSISSRSGYAYYADSVKGRFTISRDNAKNSLYLQMNSLRAEDTAVYYCARFGALNTLNWVFDYWGQGTLVTVSS VL: QSALTQPPSASGSPGQTVTISCTGTSTDVGDYNYVSWYQQHPGKAPKLMIYQVSKKPSGVPDRFSGSKSGNTASLTVSGLQAEDEADYFCSTRTANAGVLFGGGTKLTVL",,,,antibody concentration-dependent ADCC activity
